# Measured values reported in paper PMC4598089, “An Sp1 Modulated Regulatory Region Unique to Higher Primates Regulates Human Androgen Receptor Promoter Activity in Prostate Cancer Cells”.
# B1: ARS (dsDNA)
# DNA 1: TCTCCACCCCGCCTCCCCCCACCCTGCCTT
# DNA 2: AAGGCAGGGTGGGGGGAGGCGGGGTGGAGA
# B2: Sp1-1 (dsDNA)
# DNA 1: CGGCCCGGTGGGGGCGGGACCCGACTCGCA
# DNA 2: TGCGAGTCGGGTCCCGCCCCCACCGGGCCG
# B3: Sp1-3 (dsDNA)
# DNA 1: TTCTCCCCACCCGCCCCCCCGCCCCCGTCG
# DNA 2: CGACGGGGGCGGGGGGGCGGGTGGGGAGAA
# Molecular target: Sp1 (purified recombinant) (Homo sapiens, UniProt P08047 1-785)
# Sequence (P08047 whole entry): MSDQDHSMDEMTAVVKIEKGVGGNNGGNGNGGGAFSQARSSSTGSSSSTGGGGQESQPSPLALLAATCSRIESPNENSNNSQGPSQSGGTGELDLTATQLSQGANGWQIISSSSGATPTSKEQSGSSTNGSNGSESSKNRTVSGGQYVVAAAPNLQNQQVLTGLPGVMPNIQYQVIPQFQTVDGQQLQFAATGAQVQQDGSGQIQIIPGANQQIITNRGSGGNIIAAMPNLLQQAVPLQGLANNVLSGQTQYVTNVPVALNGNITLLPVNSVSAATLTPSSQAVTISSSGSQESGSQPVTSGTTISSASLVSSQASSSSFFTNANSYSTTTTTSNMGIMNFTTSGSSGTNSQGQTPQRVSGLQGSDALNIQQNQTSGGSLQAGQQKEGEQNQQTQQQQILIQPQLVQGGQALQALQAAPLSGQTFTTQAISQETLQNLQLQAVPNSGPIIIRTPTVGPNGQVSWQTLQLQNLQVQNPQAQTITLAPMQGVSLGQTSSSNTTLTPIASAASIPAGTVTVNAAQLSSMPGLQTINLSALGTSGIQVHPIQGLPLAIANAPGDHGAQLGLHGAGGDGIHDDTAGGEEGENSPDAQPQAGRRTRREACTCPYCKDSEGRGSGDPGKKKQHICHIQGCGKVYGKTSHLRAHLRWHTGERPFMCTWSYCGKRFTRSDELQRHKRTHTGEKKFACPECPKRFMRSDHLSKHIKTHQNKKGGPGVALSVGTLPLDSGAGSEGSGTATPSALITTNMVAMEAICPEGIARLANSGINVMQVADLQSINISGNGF
# Assay: EMSA; EMSA: 10 ug nuclear extract or 120 nM Sp1, 20 fmol biotin probe; binding buffer per earlier paper (not given); 6% native PAGE, 0.5x TBE pH 8.3, cooled gel. pur-alpha bands not listed: antibody had no effect, protein not identified in extract.
# Conditions: label: 3' biotin, blunt
row,Binder,binding result
1,B1,binds
2,B2,binds
3,B3,binds
